# In the supplement of paper PMC12042874:
# ± gives the uncertainty stated by the source.
# Assay: amyloid nucleation score (Sup35N fusion, yeast selection) (log enrichment); library NNK1; higher = more nucleation; inactive = no reads after selection
# Outline: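 In psi-negative yeast, Sup35N fusions carrying peptides of 20 random codons were induced with 100 μM copper sulfate for 24 hours. The cells then grew 7 days at 30°C on medium lacking adenine and uracil, and plasmid inserts from input and output were Illumina-sequenced, excluding sequences with under 100 input reads. Nucleation score is the DiMSum log enrichment of output over input reads, centred on the mode score of non-aggregating sequences.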
row,Substance,amyloid nucleation score
1,WETVQLTGRVLFWAISYCKI,-0.178 ± 0.52
2,GDCFFQSYDTVFNFASR,2.24 ± 0.2
3,LICPSLHPRAVGECSSVCWR,0.157 ± 0.19
4,KMVLF,0.927 ± 0.49
5,SRKCGDVCSKDGRPVCPGTE,1.67 ± 0.15
6,VFNFT,-0.816 ± 1.9
7,WLESLARDSCSRFIDLHEWG,-0.615 ± 1.5
8,PIKHCRRRNTDRRKTGMSQV,-0.447 ± 0.62
9,PLVKGIHSNPRTYTTMYYSY,-1.93 ± 2.7
10,TFYLSRDIRLYFSWN,7.83 ± 0.049
11,FMGVINGEITLVNSFVTYMR,7.768 ± 0.051
12,FGESPH,0.494 ± 0.74
13,CNRSLWAGPRLHPWTRMYVR,0.85 ± 0.62
14,IKWWKLCGVVRIGNNCLRYL,0.64 ± 0.72
15,KWSSRCQWDWTLLGTCLAL,0.29 ± 0.3
16,VRGHKWVAWNWMRVARAEQE,-0.257 ± 0.99
17,LFTRIFSLSMYVPNCFRYAY,1.02 ± 0.39
18,SVKRMWYLDV,-0.483 ± 0.32
19,AFFYYIEQDSYTVRSIMI,-0.294 ± 0.42
20,NYHLGCCNISMF,7.856 ± 0.047
21,LEFRPRFSSISYHMIMFVGH,inactive
22,ILSFMYYDTHAPLKFAVQVK,0.296 ± 0.45

row,Substance,amyloid nucleation score
1,SSLASMASVDRKNHRGSGEG,1.77 ± 0.11
2,YPLPV,0.376 ± 0.28
3,SVNTPTGSIFEICQYDSIKG,-0.302 ± 0.45
4,LRAHGAYRYQWEACCHNLG,-0.138 ± 0.36
5,HSNYFPKSLYVLGLFCSTVS,6.22 ± 0.065
6,RMFNQAI,-0.394 ± 0.74
7,LMDIGPANEKFN,-1.18 ± 1.4
8,WHAHFEFNMLGILCRHFCSL,3.19 ± 0.16
9,HCSSVQFPRTGVIEVALQKD,-0.17 ± 0.57
10,YCSKRFLVKRNFLLFYNCDF,1.03 ± 0.5
11,NYAARPHSRSLLGAYDCSWS,0.731 ± 0.47
12,VAVVLYAQTV,-0.376 ± 0.63
13,RFNNDMTSLLSGRIAMEYSY,-0.344 ± 0.62
14,LVPVITWK,4.3 ± 0.13
15,MTHLNPMSFVDPKFVPVDFS,2.48 ± 0.47
16,TRRSRFW,1.45 ± 0.35
17,LMRHYSHMFYIRHAVLLTNP,0.255 ± 0.36
18,QGLSYFDCSDWLNYLFFKSY,0.126 ± 0.27
19,YWSLVVAAWRMENGWHGFLL,0.059 ± 0.39
20,CSRNDTVHATINMWDNSATA,-0.07 ± 0.41
21,RYWSRQRLTDVYVFRLDMSR,-2.07 ± 2.4
22,SVESYTKAISIYTIGERIVL,-0.004 ± 1.6

row,Substance,amyloid nucleation score
1,HKIDINSVLLLKCVVYVGCL,4.12 ± 0.066
2,SNWTPCQSESP,-0.311 ± 0.55
3,WCNRHHDWVVLLAIVAGGEV,0.873 ± 0.64
4,IHNNRVGVYCILNNTQRVE,0.2 ± 0.61
5,CSAYGKNTMGSESPVMSMAS,0.368 ± 0.72
6,GLALHGIEWVCCVQDQSFDR,7.08 ± 0.071
7,RLYPL,0.908 ± 0.34
8,SNSMLISYSCEFTWGVGKVL,0.242 ± 0.4
9,AGHSCQSTMTGCYTFHSYVW,-0.102 ± 0.49
10,HVLMLNW,3.05 ± 0.084
11,SYGDQSVEKSLRSTATPDPQ,0.105 ± 0.35
12,YGFRQGTTSDNGTFTRIVHM,-0.336 ± 0.5
13,LSKGRATVYF,2.06 ± 0.23
14,LGSWRFMLAVI,0.375 ± 0.48
15,ILVGTWSLGSRAVEGNNWDH,-0.357 ± 0.49
16,IIVGVVNTRDYLYCRNFVYI,2.79 ± 0.1
17,IDMGSGTNFSTCKCATLIMI,inactive
18,TWSCMFLYYFTLWLCTS,inactive
19,MMDVV,-0.756 ± 0.58
20,RLLRFGENFDCWKYLNVALE,0.004 ± 0.42
21,HPQVTWGSRLAVNFCAWCYG,4.5 ± 0.054
22,RDSLESTVGVKMGNASGVCR,-0.818 ± 1.6

row,Substance,amyloid nucleation score
1,PWCFTLFALAPP,-0.077 ± 1.7
2,PMRACHCCFGCTKSLAHDSN,0.912 ± 0.53
3,VMSATVSSFWTEVCRMRTVT,1.14 ± 0.66
4,STILPIGWNFDCCITISSCV,0.372 ± 0.28
5,YCSHMLRMYFSEDRPLAQLM,-0.399 ± 0.74
6,VACNKLRYMCRCQYNMTVWF,-0.262 ± 0.62
7,VGLLMKTACSWAGSVTDRCM,2.62 ± 0.14
8,VFGVVSFLHDFNFGKAYFAV,0.191 ± 0.4
9,CNMSQC,inactive
10,MKLWMEMRWGRG,5.41 ± 0.064
11,HICSRDVLLRQY,1.41 ± 0.8
12,AVFHRREVRELAHRQPLLPI,1.03 ± 0.66
13,WMLHMASGGTLCEEASVLVV,-0.148 ± 0.55
14,LGSDDLLKVSFFFVSLGS,-0.087 ± 1.2
15,DMGSHIARSTKMVPICGGSR,-0.259 ± 1.4
16,SFCVRQSTVFLMMSWECFRY,1.19 ± 0.8
17,ILSLNCFYRTWRLEMNKSYK,1.94 ± 0.52
18,CGKTMGINAGMCSTNWGGPT,0.263 ± 0.33
19,RLIIME,inactive
20,DICVWDYMNRGGQLL,-0.047 ± 0.86
